The supplement of paper PMC7877785
± gives the uncertainty stated by the source.

Assay: self-splicing fitness, log relative to wild type (ln ratio); higher = more splicing; Tetrahymena group I intron in knt gene, E. coli kanamycin selection, DiMSum; sequences stand for … in CUCUCU…GGAGGGAAAAGUUAUCAGGCAUGCACCUGGUAGCUAGUCUUUAAACCAAUAGAUUGCAUCGGUUUAAAAGGCAAGACCGUCAAAUUGCGGGAAAGGGGUCAACAGCCGUUCAGUACCAAGUCUCAGGGGAAACUUUGAGAUGGCCUUGCAAAGGGUAUGGUAAUAAGCUGACGGACAUGGUCCUAACCACGCAGCCAAGUCCUAAGUCAACAGAUCUUCUGUUGAUAUGGAUGCAGUUCACAGACUAAAUGUCGGUCGGGGAAGAUGUAUUCUUCUCAUAAGAUAUAGUCGGACCUCUCCUUAAUGGGAGCUAGCGGAUGAAGUGAUGCAACACUGGAGCCGCUGGGAACUAAUUUGUAUGCGAAAGUAUAUUGAUUAGUUUUGGAGUACUCGUGGUCG
Procedure, shortened: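 DiMSum derived fitness as the error-weighted combination of fold changes across replicates, kanamycin versus no kanamycin, normalised to wild type. E. coli BL21(DE3) held the library, which randomised all eight P1ex-region intron nucleotides within the knt kanamycin-resistance gene on pET-22b(+). Six replicate transformations grew overnight at 37°C or 30°C on LB agar with or without 25 μg/mL kanamycin, also containing 100 μg/mL carbenicillin, 50 μM IPTG and 0.2% rhamnose, and pooled colonies were amplicon-sequenced on an Illumina HiSeq 2500.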

Sequence	self-splicing fitness (ln) (30 °C)	self-splicing fitness (ln) (37 °C)
UACAAGCAAUAUUACGUAGC	-3.5 ± 0.18	-2.09 ± 0.2
CGUAAGCAAUAUUACGAUAU	-2.95 ± 0.14	-2.77 ± 0.2
GCCCAGCAAUAUUACGAGCA	-1.49 ± 0.11	-0.143 ± 0.091
CGUCAGCAAUAUUACGAACA	-0.807 ± 0.078	0.843 ± 0.12
GGUCAGCAAUAUUACGGCCA	-2.33 ± 0.19	-0.589 ± 0.17
GCGUAGCAAUAUUACGAAUC	-1.05 ± 0.17	-0.37 ± 0.2
GCAUAGCAAUAUUACGCACG	-2 ± 0.17	-2.05 ± 0.22
ACCUAGCAAUAUUACGUUAG	-3.59 ± 0.14	-2.69 ± 0.19
CUCAAGCAAUAUUACGAUCA	-1.3 ± 0.3	-1.09 ± 0.2
AUCGAGCAAUAUUACGACAG	-2.51 ± 0.12	-3.22 ± 0.19
GGUGAGCAAUAUUACGCUGU	-3.68 ± 0.34	-1.64 ± 0.27
UUCUAGCAAUAUUACGGUAC	-4.34 ± 0.36	-2.76 ± 0.3
GCAAAGCAAUAUUACGCGGG	-3.11 ± 0.21	-2.41 ± 0.21
AACUAGCAAUAUUACGUGUC	-4.26 ± 0.19	-1.25 ± 0.1
CGCCAGCAAUAUUACGGUCU	-0.989 ± 0.061	-0.324 ± 0.076
CCCGAGCAAUAUUACGUUCG	-4.22 ± 0.42	-2.55 ± 0.3
GUAGAGCAAUAUUACGAAGU	-2.46 ± 0.23	-0.951 ± 0.17
GGUAAGCAAUAUUACGUGAU	-1.64 ± 0.099	-1.68 ± 0.12
UAGCAGCAAUAUUACGUCGA	-1.12 ± 0.071	-0.528 ± 0.082
CUUUAGCAAUAUUACGGGAU	-3.8 ± 0.22	-2.67 ± 0.19
UCCGAGCAAUAUUACGCGGA	-2.27 ± 0.3	–
AUUUAGCAAUAUUACGUUAG	-3.03 ± 0.47	-2.61 ± 0.25

Sequence	self-splicing fitness (ln) (30 °C)	self-splicing fitness (ln) (37 °C)
UUAAAGCAAUAUUACGCUGU	-1.31 ± 0.16	-1.68 ± 0.2
GCAUAGCAAUAUUACGAAAA	–	0.492 ± 0.27
ACUCAGCAAUAUUACGUCCC	-0.969 ± 0.13	-0.71 ± 0.16
CCGAAGCAAUAUUACGACUA	-2.1 ± 0.37	-2.65 ± 0.36
AACAAGCAAUAUUACGAAAU	-3.53 ± 0.13	-1.4 ± 0.095
AUACAGCAAUAUUACGGUAU	-3.46 ± 0.18	-2.99 ± 0.2
ACUUAGCAAUAUUACGGUGU	-2.79 ± 0.11	-1.64 ± 0.097
GGAAAGCAAUAUUACGUGCA	-0.965 ± 0.075	0.36 ± 0.099
AUCCAGCAAUAUUACGUCUA	-0.908 ± 0.066	-0.497 ± 0.07
ACUUAGCAAUAUUACGAAUG	-2.24 ± 0.11	-1.13 ± 0.12
GCUGAGCAAUAUUACGCGCA	-1.72 ± 0.4	–
CCUGAGCAAUAUUACGGUAG	-3.11 ± 0.2	-2.26 ± 0.2
UAUAAGCAAUAUUACGCCUG	-0.378 ± 0.13	0.297 ± 0.16
UCUUAGCAAUAUUACGACUU	-3.52 ± 0.31	-2.47 ± 0.31
GUACAGCAAUAUUACGCUCU	-0.911 ± 0.091	-0.379 ± 0.11
UCUCAGCAAUAUUACGCAGA	-2.73 ± 0.49	–
AUAAAGCAAUAUUACGUACG	-0.889 ± 0.095	-0.0766 ± 0.13
AUCGAGCAAUAUUACGGCCG	-1.92 ± 0.22	-0.981 ± 0.2
GGCCAGCAAUAUUACGUUAA	-3.51 ± 0.29	-2.62 ± 0.19
GAGAAGCAAUAUUACGAUUC	-0.752 ± 0.094	-0.653 ± 0.15
CCUAAGCAAUAUUACGUGAA	–	-1.96 ± 0.26
